# According to the nanobody polyreactivity screen of Harvey et al. (2022):
# Assay: yeast display, Sf9 membrane polyspecificity reagent, FACS + sequencing; frameworks hold sequencing errors
# Outline: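 Nanobodies from a synthetic yeast display library (Saccharomyces cerevisiae BJ5465), induced 36–48 hours with galactose, were stained 1 hour at 4 °C with 10% biotinylated, detergent-solubilized Sf9 membrane reagent, enriched on streptavidin microbeads, then FACS-sorted. Anti-HA (expression) and streptavidin (reagent binding) fluorescence set low and high (top ~1%) gates. Polyreactivity labels come from the gate of origin. Genes were colony-PCR amplified, MiSeq 2 × 250 sequenced and filtered by CDR length.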
row,Sequence,polyreactivity (PSR sort gate)
1,QVQLVESGGALDQARGSLSLSCAASGFLFGQNAMVWSRQAPGKLREFVATNNRSGGSTYYADSVKGRFTISRDNAKNTVYVQMNSLKPEDTAVYYCAKGPRMSSSLRYSAYWIMNYWGQGTQVTVSS,high polyreactivity
2,QVQLVESGGALGQAGGSLRLSCAASGFTFRIYDMGWYRHAPGKETELVAAITNGGSTDYADSVKGRFTISRDNAKNTVYLQMNSLKPEDTAVYYCAADVTYQVYDLVSVWYDYWGQGTQVTVSS,low polyreactivity
3,QVQLVESGGALVHAGGSLRLSCAASGSIFYQYDMGWYRQAPLKERELVAAISRSGTRTYYEDSVKGRFTISRDNAKNTVYLKMNSLKPEDTAVYYCARRYRSGYGYWGQGTQVTVSS,high polyreactivity
4,QVQLVESGGALVQAGGRLRLSCAASGTFERKVMGWYIHAPGKERELVAAISRSGSSTYYADSLKGRFTISRDNAKNTVYLQMNSLKPEDTAVYYCAARGTKQHFNYWGQGTQVTVSS,high polyreactivity
5,QVQLVESGGALVQAGGSHRLSCAASGRTFHFNAMGWYRPATGKERELVAAITNSGGRTSYADSVKGRFTISRDNAKNTVYLQMNSMKPEDTAVYYCNVEVTYSSGKYDYWGPGTQVTVSS,low polyreactivity
6,QVQLVESGGALVQAGGSLRISCAASGRTFQVNTMGWYRQAPGKEMELVAAISSAGRTYYADSVKGRFTISRDNAKNTVYLQMNSLKPEDTAVYYCSAAWSYSYWKARYGYWGQGTQVTVSS,high polyreactivity
7,QVQLVESGGALVQAGGSLRLICAASGSIFGHNAMGWYRQAPGKERELVAAISRGTRTNYADSVKGRFTISRDNAKNTFYVQMNSLKQVDSAVYYCNLQPGRGPYVGRKYGYWGQGTQVTVSS,high polyreactivity
8,QVQLVESGGALVQAGGSLRLICAASGSTFDSNVKGWSRTAPGKERELVAVINGSGSNTYYADSVKGRFTISRDNAKNTVYLQMNSLKPEDTAVYYCNKRYWGGRYGYDYWGQGTQVTVSS,high polyreactivity
9,QVQLVESGGALVQAGGSLRLSCAASARIFGRNAMGWYTQAPGKERELVAAISSGGSTYYADSVKGRFTISRDNAKKTVYLQMNSLKPEDTAVYYCAVRGYYFNGGRAFESWGQGTQVTVSS,high polyreactivity
10,QVQLVESGGALVQAGGSLRLSCAASGFIFDAYAMGWYRQAPGKERELVPAIDYSGGNTYYADSVKGRFTISRDYAKNTVYLQMNSLKTEDTAVYYCNADYAGSFWSREYDYWGQGTQVTVSS,low polyreactivity
11,QVQLVESGGALVQAGGSLRLSCAASGFTFAWYAMGWYRQAPGKERELVAAISRSGGSTYYADSVKGRFTISRDNAKNTVYLQMNSLKPEDTAVYYCATRVYSYRKAGWYDYWGQGTQVTVSS,high polyreactivity
12,QVQLVESGGALVQAGGSLRLSCAASGFTFRTYAMGWYRQAPRKERELVADISGSGGSTYYADSVKGRFTISRDNPKNTVYLQMNSLKPEDTAVSYCAADYASWSNWGYEYWGQGTQVTVSS,high polyreactivity
13,QVQLVESGGALVQAGGSLRLSCAASGGILQYNAMGWYRQAPGKEREFVAAITTSGGSTYYADSVKGRFTISRDNAKNTVYLQMNSLKPEDTAVYYCAADSWWGIYYSGYDYWGQGSQVTVSS,low polyreactivity
14,QVQLVESGGALVQAGGSLRLSCAASGIIFYSYAMGWYRQAPGKERELVAAISNNGGSTYADSVKGRFTISRDNAKNSVYLQMKSVKPEDTAVYYCAADPTGGVGFDGYYWGQGTQVTVSS,low polyreactivity
15,QVQLVESGGALVQAGGSLRLSCAASGLTFEVYAMGWYRQAPGKESELVAAISSGGGSTYYADSVKGRFTISRDNAKNTVYLQMNSLKPEDTEVYYCNAVAKLYYWRYDYWGKGTQVTVSS,low polyreactivity
16,QVQLVESGGALVQAGGSLRLSCAASGRIFRKNAMGWYRQAPGKERELGAAISGGGGSTYYAVSVKGRFTISRDNAKNTVYLQMNSLQPEDTAVYYCNAPILPGYWGQGTQVTVSS,high polyreactivity
17,QVQLVESGGALVQAGGSLRLSCAASGRIFWHNAMGWYRQAPGKERELVAAISSRGGSTSYADSVKGLFTISRDNAKNTVYLQMNSLKPEETAVYYCNARNQAYYRVWGYRGDYWGQGTQVTVSS,low polyreactivity
18,QVQLVESGGALVQAGGSLRLSCAASGRTYWSYNIGWYRKAPGKERELVAAITSSGGTTNYADSVKGRFTISRDNAKNTVYLQMNRLKREDTAVYYFAAYSWYFGSRYDYWGQGTQVTVSS,low polyreactivity
19,QVQLVESGGALVQAGGSLRLSCAASGSIFRYYAMGWYRQAPVKERELVAAIDFSGGRTYYADSVKGRFTISRDNAKNTVYLQMNRLKPEDTAVYDCARKYTTAYGSTFYYWGQGTQVSVSS,high polyreactivity
20,QVQLVESGGALVQAGGSLRLSCAASGSIFSRNAMGWYRTAPGKERELVAGISTGGSTNYADSVKGRFTISRDNAKNTVYLQMTSLKPEDTAVYYCAAPLAYEGDYWGQGTQVTVSS,low polyreactivity
21,QVQLVESGGALVQAGGSLRLSCAASGSIFVPYTMGWYRQAPGKERELVSSISYSGGTTYYADSVKGRFTISRDYAKNTVYLQMNSLKPEDTAVYYCAADWDESYSYRRYSHYDYWGQGTQVTVSS,low polyreactivity
22,QVQLVESGGALVQAGGSLRLSCAASGSTFGRYAMGWYRQAPGKERELVATIRSGGSTTYADSVKGRFTISRDNAKNTVYLQMNSLKREDTAVYYCAAGTKPSYYYWGQGTQVTVSS,low polyreactivity

row,Sequence,polyreactivity (PSR sort gate)
1,QVQLVESGGALVQAGGSLRLSCAASGSTFHRNAMGWYRQAPGKERELVAAITSGGSTNYADSVKGRFTISRDNAMNTVYLQLNSLKPEDTAVYSCAKDYRHYNRGWYDYWGQGTQVTVSS,low polyreactivity
2,QVQLVESGGALVQAGGSLRLSCAASGSTIGDNAMGWYRQAPGKERELVASISWSGASTYYADSVKGRFTISRDNAKNTFYLPMKSLKPEETEVYYCAVYYSYFSHLYHLLFYYWGQGTQVTVSS,low polyreactivity
3,QVQLVESGGALVQAGGSLRLSCAASGSTLRANAMGWYRQAPGKERELVARITSGGSTYYADSVKGRFTISRDNAKNTVYFQMNSLKPEDTAVYYCAATYKLAYRRGYWGQGTQVTVSS,high polyreactivity
4,QVQLVESGGALVQAGGSLRLSCDASGSTLWDYAMGWYRQAPRKERELVAASTQSTGDTHYADSVKGRFTLSRDNAKNTVYFQMNSLKPEDTAVYYCAADSYLSVYDPYGYWGQGTQVTVSS,low polyreactivity
5,QVQLVESGGALVQAGGSLRLTCAASGRTLYLYAMGWYRQAPGKEREFVAAINSSGDSTYYADSVKGRFTISRDNAKNTVYLQMNSLNPEDTAVYYCNVAWFRHEYDYWGQGTQVTVSS,low polyreactivity
6,QVQLVESGGALVQAGGSLRVSCAASGRIFRRNAMGWDRPAPGKERELVAGIDRSGGSTYYADSVKRRFTISRDNGKKTVYIQMNSLKPEDTAVYYCNTRAPYRVKSSGYWGLGTQVTVSS,high polyreactivity
7,QVQLVESGGALVQAGGSVRLSCAASGRTFGTYAMGWYRQAPGKERELVAAISTRGGRTFYADSVKGRFTISRDNAKNTVYLQMNSLKPEDTAVYYCAAYYKYYEYDYWGQVTQVTVSS,high polyreactivity
8,QVQLVESGGCIVQAGGSLRLSCAASGFTFRTNTKGWYRQAPGKDRELVAAISRSGGSTYYADSVKGRFTISRDNAKNTVYLQMNSLKPEDTAVYDCNAVGRSDSYYLAYNYWGQGTQVTVSS,high polyreactivity
9,QVQLVESGGCIVQAGGSLRLSCAASGRTFRAYAMGWYRQAPGKEREFVAAITKRGGGTYYADSVKGRFTISRDNAKNTVYLQMNILKPEDTAVYYCAAESGSWYSRMDYWGQGTQVTVSS,high polyreactivity
10,QVQLVESGGCIVQAGVSLRLSCSSSGRTFGYNAMGLYRNAPGKERELVAAINWSGASKYYADSVKGRFTISRDNAKNTVYLQMNSLKPEDTAVYYCAADYSYIYGFDYWGQGTQVTVSS,low polyreactivity
11,QVQLVESGGCLDQAGGSLRLSCAASGFTFYNYAMGWYRQEPGKETQLVAAITRNGGRTYYADSVKWRFTISRDNAKYTVYLQMNSLKPEDTAFYYCASKKYKTVRYDYWGQGTQGTVSS,high polyreactivity
12,QVQLVESGGCLVPAGGSLRLSCAASGHTFSSYAMGWYRQAPGKERELVAAISVSATRTYYADSVKGRFTISRDNAKNTVYLQMNSLKPEDTAVFYCAARPVQFTYGYWGQGTQVTVSS,high polyreactivity
13,QVQLVESGGCLVQAGCSHRLSCAASGSTFGHNAMGWYRQAPGKERELVAAISWSGGRTSYADSVKGRFTISRDHAKNTVYLQLNSLKPEDTAVYYCAARSWRKGDYWGQGTQVTVSS,high polyreactivity
14,QVQLVESGGCLVQAGCSLRLSCAASGRIFGYYVMGWYRQAPGKERELVAAIRSSADSTYYADSVKGRFTISRDNAKNTVYLQMNSLKPEDTAVYYCAAQSPAYYTKSYWGQGTQVTVSS,low polyreactivity
15,QVQLVESGGCLVQAGCSRRLSCAASVRIFARNTMGWSRQAPGKERELVAAISWGGGRTYYADSVKGRFTISRDNAKNTVYLQMNSLKPEDTAVYYCAAETLQIPRGEYWGQGTQVTVSS,low polyreactivity
16,QVQLVESGGCLVQAGGRLRLSCAASGIIFYLYAMAWYRQARGKVWELVATISRRGGSTYYADSVKGRFTISRDNAKNTVYLQMNSLKPDDTAVYYCATGHFSVGRSFSSGSYEYWGQGTQVTVSS,high polyreactivity
17,QVQLVESGGCLVQAGGRLRLSCAASGLTLYKNGMGWYRQAPGKERELVAVISRSGGRTYYADSVKGRFTISRDNAKNTVFLHMNSLKPEDTAVYYCAALQYGPRYTYYYWGQGTQVTVSS,high polyreactivity
18,QVQLVESGGCLVQAGGRLRLSCAASVRTFRSYAMGWYRQAPGKERELVAAISWSGGSTYYADSVKGRFTISRDNAKNTVYLQMTSLKPEDTAGYYCAAEVYYTYVYILDYWGQGTQVTVSS,high polyreactivity
19,QVQLVESGGCLVQAGGRLRLSSAASGRTIGWNAMGWYRQAPGTEREFVAAITISGGDTYYADSVKGRFTISRDNAKNNVYFQMNSLKPEDTAVYYCAATSTWRPSFEMDYWGQGTQVTGSS,low polyreactivity
20,QVQLVESGGCLVQAGGSLRFICAASGRIFDDNAMGWYRPAPGKERELVATISSTGGRTYYADSLKGRFTISRDNAKNNVYLQMNSLKPEDTAVYYCAARRRQGGYYYWGQGTQVTVSS,high polyreactivity
21,QVQLVESGGCLVQAGGSLRISCAASGRIFSRNAMGWYRQAPGKEREWVAAITRSSGTTYYADSVKGRFTISRDNAKNTVYLQMNSLKPEDTAVYYCAAGHTYGGYPRPSDYWGQGTQVTVSS,low polyreactivity
